From publication PMC5375031 (Nature, 2017)
Each block holds one binder with its values, some of them ahead of it. Where no end group is shown, it is not given here.

What was measured:
[1] = target: T1, TAZ1 domain of CBP (residues 340-439 of mouse CBP) (mouse, UniProt P45481 340-439); assay: fluorescence polarisation
[2] = target: T1, TAZ1 domain of CBP (residues 340-439 of …); assay: fluorescence polarisation + BLI
[3] = target: T1, TAZ1 domain of CBP (residues 340-439 of …); assay: stopped-flow fluorescence
[4] = target: T1, TAZ1 domain of CBP (residues 340-439 of …); assay: fluorescence polarisation; remark: listed apart in the source

T1 sequence (P45481 340-439): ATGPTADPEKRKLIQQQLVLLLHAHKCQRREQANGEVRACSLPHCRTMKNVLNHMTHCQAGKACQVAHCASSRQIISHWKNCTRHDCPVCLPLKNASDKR

B1: HIF-1α 776-826 C800V labeled with Alexa Fluor 594 at position 780 (peptide, UniProt Q16665 776-826, looked up)
chain: SDLAC(Alexa Fluor 594)RLLGQSMDESGLPQLTSYDVEVNAPIQGSRNLLQGEELLRALDQVN
- binding result [1]: binds

B5: CITED2 transactivation domain peptide (residues 216-269) (peptide, UniProt Q99967 216-269, looked up)
chain: NVIDTDFIDEEVLMSLVIEMGLDRIKELPELWLGQNEFDFMTDFVCKQQPSRVS
- Kd [2]: 10 nM

Now from value to binder:

- apparent Kd (displacing labeled HIF-1α from TAZ1) [1]: 10 ± 1 nM
- Kd [2]: 10 nM
B2: HIF-1α C-terminal transactivation domain peptide (residues 776-826) (peptide, UniProt Q16665 776-826, looked up)
chain: SDLACRLLGQSMDESGLPQLTSYDCEVNAPIQGSRNLLQGEELLRALDQVN

- binding result [3]: binds
B3: HIF-1α 776-826 C800V labeled with Alexa Fluor 488 at position 780 (peptide, UniProt Q16665 776-826, looked up)
chain: SDLAC(Alexa Fluor 488)RLLGQSMDESGLPQLTSYDVEVNAPIQGSRNLLQGEELLRALDQVN

- binding result [4]: binds
B4: CITED2 216-269 labeled with Alexa Fluor 594 at Cys 261 (peptide, UniProt Q99967 216-269, looked up)
chain: NVIDTDFIDEEVLMSLVIEMGLDRIKELPELWLGQNEFDFMTDFVC(Alexa Fluor 594)KQQPSRVS
